Like-named read-outs stand apart in the source and are kept apart here.
T1: extracellular domain of human BCMA (human, UniProt Q02223 1-54)
T1 construct: amine-linked to Octet AR2G tips; also called hsBCMA; BCMA (human)
T1 sequence: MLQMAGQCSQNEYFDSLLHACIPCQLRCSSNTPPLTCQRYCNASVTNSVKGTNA


Experiments:
Assay in all cases: Octet BLI; Fab 200 nM
[1] = target: T2, extracellular domain of rhesus monkey BCMA (rhesus monkey, UniProt F7FFA0 1-53)
T2 construct: extracellular domain; also called RhBCMA

[2] = target: T1, extracellular domain of human BCMA
[3] = target: T2, extracellular domain of rhesus monkey …; remark: listed apart in the source
[4] = target: T1, extracellular domain of human BCMA; remark: listed apart in the source

T2 sequence (F7FFA0 entry or part of it): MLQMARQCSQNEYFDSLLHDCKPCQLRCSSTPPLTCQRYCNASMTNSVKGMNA

Binder	Kd [3] [nM]	Kd [4] [nM]	also measured
AB200_Fab + D99H (Fab, V domains shown, also called AB200_D99H; D99H variant) VH: QVQLVQSGAEVKKPGSSVKVSCKASGGTFSNYWMHWVRQAPGQGLEWMGATYRGHSDTYYNQKFKGRVTITADKSTSTAYMELSSLRSEDTAVYYCARGAIYHGYDVLDNWGQGTLVTVSS VL: DIQMTQSPSSLSASVGDRVTITCSASQDISNYLNWYQQKPGKAPKLLIYYTSNLHSGVPSRFSGSGSGTDFTLTISSLQPEDFATYYCQQYRKLPWTFGQGTKLEIKR			Kd [1]: 5.7 nM; koff [1]: 0.00105 s⁻¹; kon [1]: 180000 M⁻¹ s⁻¹; Kd [2]: 2.08 nM; koff [2]: 0.00037 s⁻¹; kon [2]: 180000 M⁻¹ s⁻¹
AB200-(2Vk30)_R2-VH-v4 (Fab, V domains shown) VH: QVQLVQSGAEVKKPGSSVKVSCKASGGTFTNYWIHWVRQAPGQGLEWMGATYRSHSDTNYAQKFKSRVTITADKSTSTAYMELSSLRSEDTAVYYCARGAIYHGYDVIENWGQGTLVTVSS VL: DIQMTQSPSSLSASVGDRVTITCRASQSISSYLNWYQQKPGKAPKLLIYATSNLQIGVPSRFSGSGSGTDFTLTISSLQPEDFATYYCQQYRRIPWTFGQGTKLEIKR	125	46.4	
AB200-(2Vk30)_R2-VH-v16 (Fab, V domains shown) VH: QVQLVQSGAEVKKPGSSVKVSCKASGGSFSNYWIHWVRQAPGQGLEWMGGTYRSHSDTNYNQKFKSRVTITADKSTSTAYMELSSLRSEDTAVYYCARGAIFHGYDVIDNWGQGTLVTVSS VL: DIQMTQSPSSLSASVGDRVTITCRASQSISSYLNWYQQKPGKAPKLLIYATSNLQIGVPSRFSGSGSGTDFTLTISSLQPEDFATYYCQQYRRIPWTFGQGTKLEIKR	178	74.6	
AB200-(2Vk30)_R2-VH-v13 (Fab, V domains shown) VH: QVQLVQSGAEVKKPGSSVKVSCKASGGSFSNYWIHWVRQAPGQGLEWMGGTYRSHSDTYYAQKFKSRVTITADKSTSTAYMELSSLRSEDTAVYYCARGAIYHGYDVIENWGQGTLVTVSS VL: DIQMTQSPSSLSASVGDRVTITCRASQSISSYLNWYQQKPGKAPKLLIYATSNLQIGVPSRFSGSGSGTDFTLTISSLQPEDFATYYCQQYRRIPWTFGQGTKLEIKR	144	44.7	
AB200-(2Vk30)_R2-VH-v19 (Fab, V domains shown) VH: QVQLVQSGAEVKKPGSSVKVSCKASGGTFSNYWIHWVRQAPGQGLEWMGGTYRSHSTTYYNQKFKSRVTITADKSTSTAYMELSSLRSEDTAVYYCARGAIYHGFDVIDNWGQGTLVTVSS VL: DIQMTQSPSSLSASVGDRVTITCRASQSISSYLNWYQQKPGKAPKLLIYATSNLQIGVPSRFSGSGSGTDFTLTISSLQPEDFATYYCQQYRRIPWTFGQGTKLEIKR	25.4	14.6	
AB200-(2Vk30)_R2-VH-v30 (Fab, V domains shown) VH: QVQLVQSGAEVKKPGSSVKVSCKASGGTFSNYWIHWVRQAPGQGLEWMGATYRSHSDTNYAQKFKSRVTITADKSTSTAYMELSSLRSEDTAVYYCARGAIYHGYDVIENWGQGTLVTVSS VL: DIQMTQSPSSLSASVGDRVTITCRASQSISSYLNWYQQKPGKAPKLLIYATSNLQIGVPSRFSGSGSGTDFTLTISSLQPEDFATYYCQQYRRIPWTFGQGTKLEIKR	141	50.4	
AB200-(2Vk30)_R2-VH-v10 (Fab, V domains shown) VH: QVQLVQSGAEVKKPGSSVKVSCKASGGTYSNYWIHWVRQAPGQGLEWMGATYRSHSDTNYNQKYKSRVTITADKSTSTAYMELSSLRSEDTAVYYCARGAIYHGYDVIENWGQGTLVTVSS VL: DIQMTQSPSSLSASVGDRVTITCRASQSISSYLNWYQQKPGKAPKLLIYATSNLQIGVPSRFSGSGSGTDFTLTISSLQPEDFATYYCQQYRRIPWTFGQGTKLEIKR	330	85.8	
AB200-(2Vk30)_R2-VH-v23 (Fab, V domains shown) VH: QVQLVQSGAEVKKPGSSVKVSCKASGGTFSNYWIHWVRQAPGQGLEWMGGTYRSHSDTYYNQKYKSRVTITADKSTSTAYMELSSLRSEDTAVYYCARGAIFHGYDVIDNWGQGTLVTVSS VL: DIQMTQSPSSLSASVGDRVTITCRASQSISSYLNWYQQKPGKAPKLLIYATSNLQIGVPSRFSGSGSGTDFTLTISSLQPEDFATYYCQQYRRIPWTFGQGTKLEIKR	25.9	6.89	

— patent US20240327535A1 (EISAI R AND D MANAGEMENT, published 2024)
